Measurements taken from the supplement of paper PMC10065799, “High-throughput profiling of sequence recognition by tyrosine kinases and SH2 domains using bacterial peptide display” (eLife, 2023).

system: c-Abl (mouse); assay: phosphorylation enrichment, bacterial display (enrichment ratio); higher = better substrate or ligand; peptides without Tyr show the background
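Also: 11-residue human phosphosite peptides and single-mutation variants displayed on the E. coli surface, counted by deep sequencing, each peptide's frequency after selection divided by its frequency in the unselected input library; frequency after pTyr selection over input frequency; kinase dosed for 20-30% of maximal phosphorylation in three min.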

Sequence | phosphorylation enrichment
SEKVVYRRFTE [NCF1_Y41] | 0.527
CTTIHFNFMCN [TP53_Y234_Y234F_YF] | 0.824
IMITDYLLLFR [INSR_Y87] | 0.829
MSSAGYRAAEG [COL6A3_Y543_T538M] | 0.497
NKEAICSGFIR [SMCHD1_Y283_Y283C_YF] | 0.741
CTTIRYNYMCN [TP53_Y234_H233R] | 0.491
YRVDCYKNFVA [FHL1_Y213_C209R] | 0.543
IFGASYVPFAA [RBM47_Y541_YF] | 0.496
VNYGAYINYFK [GLB1_Y488_D491Y] | 0.941
GRRNTYYASIA [ACADM_Y352] | 0.572
RRIHSHRGHLW [VHL_Y112_Y112H] | 0.909
SCRENYSFSEE [LEMD3_Y258_D260Y_YF] | 0.791
YADGVYQALEE [DUOX2_Y70] | 2.69
LENSTYQFICV [CRB1_Y760_R764C_YF] | 1.12
SSMIDYKPLEK [MYOC_Y479_N480K] | 0.459
QRALLYEDTLF [UNC13D_Y56_A59T_YF] | 1.13
GRDQPYSGTGD [TYRO3_Y828_A831T] | 0.673

Sequence | phosphorylation enrichment
ISDEAYVMAGV [ERBB2_Y772_L768S] | 0.62
TSIGNYFKPWF [DHCR24_Y299_N294T_YF] | 6.12
EARRVYGDIIF [ALDH5A1_Y175_H180Y_YF] | 0.637
YKIYLYTLNDN [FN1_Y1975] | 1.09
EATKGYLDDPT [G6PD_Y322] | 0.774
ALAAPYVLFPG [CEFIP_Y1332_YF] | 0.598
SNFRAYATEPQ [TNNI3_Y29_H34Q_YF] | 0.585
ALADKYHGGGG [HBB_Y146_H144D] | 0.423
ARAGEYGAEAL [HBA1_Y25_H21R] | 0.571
FVGGFYGGCNE [CTSC_Y352_YF] | 0.86
FAADFYKLLGN [ROR2_Y646_YF] | 0.738
LLIMEYAKYGS [RET_Y806_V804M] | 1.51
MGRVNYGAFIN [GLB1_Y485_YF] | 0.472
GADDSYYTARS [ZAP70_Y492] | 0.938
STTIHYNFMCN [TP53_Y234_C229S_YF] | 0.753
MMVGAYSTLEG [ECPAS_Y470] | 0.57

target: FGFR1 (UniProt P11362); assay: as above
Sequence (P11362 whole entry, looked up): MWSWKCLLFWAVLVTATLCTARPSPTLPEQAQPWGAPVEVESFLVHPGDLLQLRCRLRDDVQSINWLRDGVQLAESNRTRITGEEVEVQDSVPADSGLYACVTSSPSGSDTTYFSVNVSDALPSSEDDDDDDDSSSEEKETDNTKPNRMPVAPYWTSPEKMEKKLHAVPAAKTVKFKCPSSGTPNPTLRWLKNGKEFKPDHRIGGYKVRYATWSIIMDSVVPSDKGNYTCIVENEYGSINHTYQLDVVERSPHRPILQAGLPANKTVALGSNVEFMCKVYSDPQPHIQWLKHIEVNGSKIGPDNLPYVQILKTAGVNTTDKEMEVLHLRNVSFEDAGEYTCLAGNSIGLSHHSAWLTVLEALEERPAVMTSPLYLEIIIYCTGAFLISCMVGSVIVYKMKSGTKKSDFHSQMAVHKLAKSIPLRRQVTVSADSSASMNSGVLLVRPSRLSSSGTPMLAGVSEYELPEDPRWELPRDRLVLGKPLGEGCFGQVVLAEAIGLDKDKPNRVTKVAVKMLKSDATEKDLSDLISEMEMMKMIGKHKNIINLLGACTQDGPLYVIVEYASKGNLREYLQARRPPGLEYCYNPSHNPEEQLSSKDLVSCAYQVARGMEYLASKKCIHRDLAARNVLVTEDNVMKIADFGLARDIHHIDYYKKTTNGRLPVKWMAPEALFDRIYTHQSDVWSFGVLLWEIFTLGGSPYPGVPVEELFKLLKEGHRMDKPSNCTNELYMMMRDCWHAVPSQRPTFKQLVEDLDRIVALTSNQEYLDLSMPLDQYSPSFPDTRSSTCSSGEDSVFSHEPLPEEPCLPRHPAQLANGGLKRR

Sequence | phosphorylation enrichment
SEKVVYRRFTE [NCF1_Y41] | 0.406
CTTIHFNFMCN [TP53_Y234_Y234F_YF] | 0.614
IMITDYLLLFR [INSR_Y87] | 1.36
MSSAGYRAAEG [COL6A3_Y543_T538M] | 0.425
NKEAICSGFIR [SMCHD1_Y283_Y283C_YF] | 0.496
CTTIRYNYMCN [TP53_Y234_H233R] | 0.475
YRVDCYKNFVA [FHL1_Y213_C209R] | 0.565
IFGASYVPFAA [RBM47_Y541_YF] | 0.589
VNYGAYINYFK [GLB1_Y488_D491Y] | 0.905
GRRNTYYASIA [ACADM_Y352] | 0.45
RRIHSHRGHLW [VHL_Y112_Y112H] | 0.558
SCRENYSFSEE [LEMD3_Y258_D260Y_YF] | 0.452
YADGVYQALEE [DUOX2_Y70] | 0.751
LENSTYQFICV [CRB1_Y760_R764C_YF] | 3.43
SSMIDYKPLEK [MYOC_Y479_N480K] | 0.377
QRALLYEDTLF [UNC13D_Y56_A59T_YF] | 0.599
GRDQPYSGTGD [TYRO3_Y828_A831T] | 0.49

Sequence | phosphorylation enrichment
ISDEAYVMAGV [ERBB2_Y772_L768S] | 0.494
TSIGNYFKPWF [DHCR24_Y299_N294T_YF] | 1.66
EARRVYGDIIF [ALDH5A1_Y175_H180Y_YF] | 0.505
YKIYLYTLNDN [FN1_Y1975] | 0.541
EATKGYLDDPT [G6PD_Y322] | 0.412
ALAAPYVLFPG [CEFIP_Y1332_YF] | 3.79
SNFRAYATEPQ [TNNI3_Y29_H34Q_YF] | 0.355
ALADKYHGGGG [HBB_Y146_H144D] | 0.396
ARAGEYGAEAL [HBA1_Y25_H21R] | 0.473
FVGGFYGGCNE [CTSC_Y352_YF] | 0.632
FAADFYKLLGN [ROR2_Y646_YF] | 0.365
LLIMEYAKYGS [RET_Y806_V804M] | 0.999
MGRVNYGAFIN [GLB1_Y485_YF] | 0.398
GADDSYYTARS [ZAP70_Y492] | 0.551
STTIHYNFMCN [TP53_Y234_C229S_YF] | 0.523
MMVGAYSTLEG [ECPAS_Y470] | 0.538

target: FGFR3 (UniProt P22607); assay: as above
Sequence (P22607 whole entry, looked up): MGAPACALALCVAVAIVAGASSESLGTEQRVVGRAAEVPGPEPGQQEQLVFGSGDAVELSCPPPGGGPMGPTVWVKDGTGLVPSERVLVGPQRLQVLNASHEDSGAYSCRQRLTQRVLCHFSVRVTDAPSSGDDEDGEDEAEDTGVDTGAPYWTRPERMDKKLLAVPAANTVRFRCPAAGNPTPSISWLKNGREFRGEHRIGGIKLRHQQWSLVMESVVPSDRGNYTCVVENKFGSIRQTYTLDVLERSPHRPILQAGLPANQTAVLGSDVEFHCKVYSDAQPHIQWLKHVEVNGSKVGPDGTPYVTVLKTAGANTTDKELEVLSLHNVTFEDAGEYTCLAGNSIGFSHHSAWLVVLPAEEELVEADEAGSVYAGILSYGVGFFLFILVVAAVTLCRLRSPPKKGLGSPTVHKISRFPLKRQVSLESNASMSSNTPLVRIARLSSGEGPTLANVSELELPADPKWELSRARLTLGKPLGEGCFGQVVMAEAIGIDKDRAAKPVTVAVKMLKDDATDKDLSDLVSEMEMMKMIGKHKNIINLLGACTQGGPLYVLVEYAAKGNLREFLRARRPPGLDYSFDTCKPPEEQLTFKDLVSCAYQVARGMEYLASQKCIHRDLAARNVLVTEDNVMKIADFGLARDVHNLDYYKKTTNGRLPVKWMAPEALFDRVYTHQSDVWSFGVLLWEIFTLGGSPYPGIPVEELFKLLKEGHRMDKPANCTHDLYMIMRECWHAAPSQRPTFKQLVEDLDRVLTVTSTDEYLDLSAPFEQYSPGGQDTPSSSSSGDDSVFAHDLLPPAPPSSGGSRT

Sequence | phosphorylation enrichment
SEKVVYRRFTE [NCF1_Y41] | 0.472
CTTIHFNFMCN [TP53_Y234_Y234F_YF] | 0.83
IMITDYLLLFR [INSR_Y87] | 1.2
MSSAGYRAAEG [COL6A3_Y543_T538M] | 0.444
NKEAICSGFIR [SMCHD1_Y283_Y283C_YF] | 0.53
CTTIRYNYMCN [TP53_Y234_H233R] | 0.544
YRVDCYKNFVA [FHL1_Y213_C209R] | 0.753
IFGASYVPFAA [RBM47_Y541_YF] | 0.636
VNYGAYINYFK [GLB1_Y488_D491Y] | 0.986
GRRNTYYASIA [ACADM_Y352] | 0.454
RRIHSHRGHLW [VHL_Y112_Y112H] | 0.701
SCRENYSFSEE [LEMD3_Y258_D260Y_YF] | 0.75
YADGVYQALEE [DUOX2_Y70] | 0.809
LENSTYQFICV [CRB1_Y760_R764C_YF] | 3.21
SSMIDYKPLEK [MYOC_Y479_N480K] | 0.425
QRALLYEDTLF [UNC13D_Y56_A59T_YF] | 0.853
GRDQPYSGTGD [TYRO3_Y828_A831T] | 0.52

Sequence | phosphorylation enrichment
ISDEAYVMAGV [ERBB2_Y772_L768S] | 0.736
TSIGNYFKPWF [DHCR24_Y299_N294T_YF] | 1.23
EARRVYGDIIF [ALDH5A1_Y175_H180Y_YF] | 0.578
YKIYLYTLNDN [FN1_Y1975] | 1.02
EATKGYLDDPT [G6PD_Y322] | 0.593
ALAAPYVLFPG [CEFIP_Y1332_YF] | 2.44
SNFRAYATEPQ [TNNI3_Y29_H34Q_YF] | 0.494
ALADKYHGGGG [HBB_Y146_H144D] | 0.402
ARAGEYGAEAL [HBA1_Y25_H21R] | 0.524
FVGGFYGGCNE [CTSC_Y352_YF] | 0.918
FAADFYKLLGN [ROR2_Y646_YF] | 0.66
LLIMEYAKYGS [RET_Y806_V804M] | 1.19
MGRVNYGAFIN [GLB1_Y485_YF] | 0.496
GADDSYYTARS [ZAP70_Y492] | 0.652
STTIHYNFMCN [TP53_Y234_C229S_YF] | 0.797
MMVGAYSTLEG [ECPAS_Y470] | 0.676

target: MERTK (UniProt Q12866); assay: as above
Sequence (Q12866 whole entry, looked up): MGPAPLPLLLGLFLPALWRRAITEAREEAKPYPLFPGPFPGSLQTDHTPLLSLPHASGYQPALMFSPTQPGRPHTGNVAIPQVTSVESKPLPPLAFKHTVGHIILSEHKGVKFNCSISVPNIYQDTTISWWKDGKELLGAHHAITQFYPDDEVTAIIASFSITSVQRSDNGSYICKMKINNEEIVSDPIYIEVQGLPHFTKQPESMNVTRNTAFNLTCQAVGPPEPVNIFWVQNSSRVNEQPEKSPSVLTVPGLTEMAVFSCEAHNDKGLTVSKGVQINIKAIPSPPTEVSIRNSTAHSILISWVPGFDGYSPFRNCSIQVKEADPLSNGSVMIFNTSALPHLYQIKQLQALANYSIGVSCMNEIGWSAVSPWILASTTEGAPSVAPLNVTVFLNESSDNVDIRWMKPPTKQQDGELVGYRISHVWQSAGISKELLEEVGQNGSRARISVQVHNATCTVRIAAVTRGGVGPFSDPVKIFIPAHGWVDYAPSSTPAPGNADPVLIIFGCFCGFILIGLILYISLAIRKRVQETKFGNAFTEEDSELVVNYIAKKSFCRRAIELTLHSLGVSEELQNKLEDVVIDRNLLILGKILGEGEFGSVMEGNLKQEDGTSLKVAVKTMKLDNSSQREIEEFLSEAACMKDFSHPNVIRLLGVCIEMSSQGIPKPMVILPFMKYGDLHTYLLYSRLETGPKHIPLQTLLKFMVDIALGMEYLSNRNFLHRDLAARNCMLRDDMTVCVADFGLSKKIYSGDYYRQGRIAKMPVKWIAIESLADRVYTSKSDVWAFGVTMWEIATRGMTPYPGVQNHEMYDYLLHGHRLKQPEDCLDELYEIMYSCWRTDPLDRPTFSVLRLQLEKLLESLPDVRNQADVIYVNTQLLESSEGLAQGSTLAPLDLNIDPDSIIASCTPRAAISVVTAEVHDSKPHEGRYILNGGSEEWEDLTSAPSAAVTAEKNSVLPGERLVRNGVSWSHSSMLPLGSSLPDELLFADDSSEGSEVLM

Sequence | phosphorylation enrichment
SEKVVYRRFTE [NCF1_Y41] | 0.438
CTTIHFNFMCN [TP53_Y234_Y234F_YF] | 0.525
IMITDYLLLFR [INSR_Y87] | 0.399
MSSAGYRAAEG [COL6A3_Y543_T538M] | 0.372
NKEAICSGFIR [SMCHD1_Y283_Y283C_YF] | 0.455
CTTIRYNYMCN [TP53_Y234_H233R] | 0.457
YRVDCYKNFVA [FHL1_Y213_C209R] | 0.507
IFGASYVPFAA [RBM47_Y541_YF] | 0.71
VNYGAYINYFK [GLB1_Y488_D491Y] | 0.629
GRRNTYYASIA [ACADM_Y352] | 0.774
RRIHSHRGHLW [VHL_Y112_Y112H] | 0.621
SCRENYSFSEE [LEMD3_Y258_D260Y_YF] | 0.38
YADGVYQALEE [DUOX2_Y70] | 1.91
LENSTYQFICV [CRB1_Y760_R764C_YF] | 2.49
SSMIDYKPLEK [MYOC_Y479_N480K] | 0.441
QRALLYEDTLF [UNC13D_Y56_A59T_YF] | 9.24
GRDQPYSGTGD [TYRO3_Y828_A831T] | 0.492

Sequence | phosphorylation enrichment
ISDEAYVMAGV [ERBB2_Y772_L768S] | 0.436
TSIGNYFKPWF [DHCR24_Y299_N294T_YF] | 4.44
EARRVYGDIIF [ALDH5A1_Y175_H180Y_YF] | 0.536
YKIYLYTLNDN [FN1_Y1975] | 0.383
EATKGYLDDPT [G6PD_Y322] | 0.455
ALAAPYVLFPG [CEFIP_Y1332_YF] | 1.29
SNFRAYATEPQ [TNNI3_Y29_H34Q_YF] | 0.477
ALADKYHGGGG [HBB_Y146_H144D] | 0.322
ARAGEYGAEAL [HBA1_Y25_H21R] | 0.379
FVGGFYGGCNE [CTSC_Y352_YF] | 0.516
FAADFYKLLGN [ROR2_Y646_YF] | 0.438
LLIMEYAKYGS [RET_Y806_V804M] | 0.6
MGRVNYGAFIN [GLB1_Y485_YF] | 0.426
GADDSYYTARS [ZAP70_Y492] | 0.43
STTIHYNFMCN [TP53_Y234_C229S_YF] | 0.5
MMVGAYSTLEG [ECPAS_Y470] | 3.09
